The results in this text go back to patent US20150158934A1.

What is called Kd is the constant that tells how readily two partners part at equilibrium. Lower therefore signals tighter binding. The koff is the rate constant with which the complex falls apart. Lower therefore signals a long-lived complex. Broadly, the kon is the rate constant with which the complex forms. A lower kon goes with slow association.

Assay in all cases: SPR
For experiment [1], the target named is CA018 gp140/420 (A/G) (HIV-1).
In experiment [2] the target is gp120IIIB (subgroup B) (HIV-1) (UniProt P04578).
Experiment [3] deals with gp140UG37 (subtype A), gp140 envelope glycoprotein from the HIV-1 group M A-clade isolate 92UG037 (HIV-1).
The target in experiment [4] is gp140CN54 (subtype B'/C), gp140 envelope glycoprotein from the HIV-1 group M CRF07-B/C-clade isolate 97CN54 (HIV-1).

Consider mAb HJ16 (antibody), for which the dissociation constant (Kd) in experiment [1] came to 1030 nM; in experiment [2], 3.03 nM; in experiment [3], 88.5 nM. The koff in experiment [1] was found to be 0.0382 s⁻¹; in experiment [2], 0.000156 s⁻¹; in experiment [3] it was 0.341 s⁻¹. Moreover, the figures for the kon in experiment [1], in experiment [2] and in experiment [3] were 37200 M⁻¹ s⁻¹, 51500 M⁻¹ s⁻¹ and 424000 M⁻¹ s⁻¹, respectively.
In experiment [1], mAb 17b (antibody) came in with a Kd of 1.07 nM, a koff of 0.000637 s⁻¹ and a kon of 593000 M⁻¹ s⁻¹. In addition, in experiment [4], the Kd came out at 6.15 nM, the koff was 0.000171 s⁻¹ and the on-rate constant (kon) was found to be 27700 M⁻¹ s⁻¹. In experiment [3], the Kd stood at 2.64 nM, the koff came to 0.000135 s⁻¹ and the kon was found to be 51000 M⁻¹ s⁻¹.
Regarding mAb 2F5 (antibody), in experiment [3], the Kd was found to be 58.5 nM, the koff worked out at 0.422 s⁻¹ and the association rate constant (kon) came to 80900 M⁻¹ s⁻¹.
On to mAb 2G12 (antibody), for which, in experiment [1], the Kd came to 537 nM, the off-rate constant (koff) is 0.342 s⁻¹ and the kon was 500000 M⁻¹ s⁻¹. In experiment [3], this substance returned a Kd of 393 nM, a dissociation rate constant (koff) of 0.349 s⁻¹ and an on-rate (kon) of 695000 M⁻¹ s⁻¹.
With mAb b12 (antibody), in experiment [1], the Kd was determined as 18.8 nM, the koff amounted to 0.0271 s⁻¹ and the on-rate (kon) is 1.43e+06 M⁻¹ s⁻¹. In addition, in experiment [4], the dissociation constant (Kd) amounted to 167 nM, the koff was determined as 0.00228 s⁻¹ and the association rate constant (kon) worked out at 13600 M⁻¹ s⁻¹. In experiment [3], this substance displayed a Kd of 233 nM, a koff of 0.301 s⁻¹ and a kon of 1.29e+06 M⁻¹ s⁻¹.
In experiment [2], “sCD4 (2-D) (from UniProt P01730 26-208) (receptor)” came in with a Kd of 0.942 nM, a koff of 6e-05 s⁻¹ and a kon of 63700 M⁻¹ s⁻¹. In experiment [3], this substance registered a Kd of 39.8 nM, a koff of 0.000249 s⁻¹ and a kon of 6250 M⁻¹ s⁻¹.
